From PMC9262907, “Modulating mitofusins to control mitochondrial function and signaling” (Nature Communications, 2022)
Where no end group is shown, it is not given here.

T1: MFN2-HR2 domain (residues 678–757) (human, UniProt O95140 678-757)
T1 chain: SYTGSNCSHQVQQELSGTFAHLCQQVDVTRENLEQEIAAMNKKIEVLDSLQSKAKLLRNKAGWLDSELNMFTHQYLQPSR

B1: 398–418Gly peptide (peptide)
chain: QDRLKFIDKQLELLAQDYKLR
modifications: also: 'Gly' in name not defined
B2: 367–384Gly peptide (peptide)
chain: QIAEAVRLIMDSLHMAAR
modifications: also: 'Gly' in name not defined
B3: mitofusin-2 (MFN2) of MEF mitochondria (natural protein, mouse (endogenous in MEFs), UniProt Q80U63 1-757, looked up)
chain: MSLLFSRCNSIVTVKKDKRHMAEVNASPLKHFVTAKKKINGIFEQLGAYIQESASFLEDTHRNTELDPVTTEEQVLDVKGYLSKVRGISEVLARRHMKVAFFGRTSNGKSTVINAMLWDKVLPSGIGHTTNCFLRVGGTDGHEAFLLTEGSEEKKSVKTVNQLAHALHQDEQLHAGSMVSVMWPNSKCPLLKDDLVLMDSPGIDVTTELDSWIDKFCLDADVFVLVANSESTLMQTEKQFFHKVSERLSRPNIFILNNRWDASASEPEYMEEVRRQHMERCTSFLVDELGVVDRAQAGDRIFFVSAKEVLSARVQKAQGMPEGGGALAEGFQVRMFEFQNFERQFEECISQSAVKTKFEQHTVRAKQIAEAVRLIMDSLHIAAQEQRVYCLEMREERQDRLRFIDKQLELLAQDYKLRIKQITEEVERQVSTAMAEEIRRLSVLVDEYQMDFHPSPVVLKVYKNELHRHIEEGLGRNLSDRCSTAIASSLQTMQQDMIDGLKPLLPVSMRNQIDMLVPRQCFSLSYDLNCDKLCADFQEDIEFHFSLGWTMLVNRFLGPKNSRRALLGYSDQVQRPLPLTPANPSMPPLPQSSLTQEELMVSMVTGLASLTSRTSMGILVVGGVVWKAVGWRLIALSFGLYGLLYVYERLTWTTKAKERAFKRQFVEYASEKLQLIISYTGSNCSHQVQQELSGTFAHLCQQVDITRDNLEQEIAAMNKKVEALDSLQSRAKLLRNKAGWLDSELNMFTHQYLQPSR
notes: mitofusin-2 (MFN2), endogenous in mouse embryonic fibroblasts, detected with an anti-MFN2 antibody; source: endogenous, mitochondria isolated from MEFs, digitonin lysate

Legend:
[1] = target: T1, MFN2-HR2 domain (residues 678–757); assay: MST
[2] = target: the molecule itself; assay: native gel or EMSA; BN-PAGE of digitonin lysates of mitochondria isolated from MEFs, without GTP; blot with anti-MFN2

Binder | Kd [1] [nM] | stoichiometry N [2]
B1 | 1500 | –
B2 | 3000 | –
B3 | – | 2
